Assay results: the nanobody polyreactivity screen of Harvey et al. (2022)

Test: yeast display, Sf9 membrane polyspecificity reagent, FACS + sequencing; frameworks hold sequencing errors
Procedure, shortened: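 Sorting gates, low and high (top ~1%), were placed on anti-HA fluorescence to track expression and on streptavidin fluorescence to track reagent binding. A clone's polyreactivity label is taken from the gate it came out of. The reagent was 10% biotinylated, detergent-solubilized Sf9 membrane, applied for 1 hour at 4 °C to galactose-induced yeast display cells.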

Sequence | polyreactivity (PSR sort gate)
QVQLVESGGGLVQAGGSLRLSCAASGSIFIGYAMGWYRQAHGKERELVAAITSGGSTYADSVKGRFTISRDNAKNPVYLQMNSLKPEDSAVYYCAARFFLVTLDYWGQGTQVTVSS | low polyreactivity
QVQLVESGGGLVQAGGSLRLSCAASGSIFIGYAMGWYRQSPGKERELVAAINDSGDRTYYADSVKGRFTISRDNAKNTVYLQMNSLKPEDTAVYYCAADLVSLDPEYDYWGQGTQVTVSS | low polyreactivity
QVQLVESGGGLVQAGGSLRLSCAASGSIFIQNGMGWYRQAPGKERELVASSASGGSTNYADSVKGRYTISRDNAKNTVYVQMNSLKPEDTAVYYCAARVWYSSDGSTYPYTRYDYWGQGTQVTVSS | high polyreactivity
QVQLVESGGGLVQAGGSLRLSCAASGSIFIRYAMGWSRQAPGTEREWVAAITSTGSTSYADSVNGRFTISRDNAKNTVYLQMNRLTPEDTAVYYCAKEASLVQGVIGGYPYDSWGQGTQVTVSS | low polyreactivity
QVQLVESGGGLVQAGGSLRLSCAASGSIFISSDRRLDRQAPGKERALVAAMRSRVGSTYYADSVKGRFTISRENGKNSDYFQMNSLKPEDTAVYYCKKDNAVDRRPWFQVTYVYWVQGTQVTVSS | low polyreactivity
QVQLVESGGGLVQAGGSLRLSCAASGSIFISYAMGWYRQAPGKERELVAAISSGGSTNYADSVKGRFTISRDNAKNTVYLQMNSLKPEATAVYYCAADGWLWSFTGDGWWFDYWGQGTQVTVSS | low polyreactivity
QVQLVESGGGLVQAGGSLRLSCAASGSIFISYDIGWYRHAPGKETELVAAIRSRVGSTYYADSVKGRFTISRDNAKNTVYLQMKSLKPEDTAVYYCNKDNAVDRLPWFQVTYEYWGQGTQVTVSS | low polyreactivity
QVQLVESGGGLVQAGGSLRLSCAASGSIFISYNMGWYGQAPGKERELVAANNYNGGRTNYADSVKGRFTISRDKAKNTVYLQINSLKPEDTAVYYCNAAYSYSIYDYWGQGTQVTVSS | low polyreactivity
QVQLVESGGGLVQAGGSLRLSCAASGSIFISYVMGWYRQAPAKERELVASISWSGGSTYYADSVKGRFTISRDNAKNTVYLQMNSLKPEDTAVYYCAADRLVRIRSYRDLGYWGQGTQVTVSS | high polyreactivity
QVQLVESGGGLVQAGGSLRLSCAASGSIFITNAMGWYRQAPGKERELVAAISGRGGSTYSADSVKGRFTISRDNAKNTVYLQMNSLKPEDTAVYYCNAYSYRVSGYDYWGQGTQVTVSS | high polyreactivity
QVQLVESGGGLVQAGGSLRLSCAASGSIFITYAMGWYRQAPGKERELVAAIRDSGDRTYYADSVKGRFTISRDNEKNTVYLQMNSLKPEDTAVYYCNARWQEPLKYDYWGQGTQVTVSS | low polyreactivity
QVQLVESGGGLVQAGGSLRLSCAASGSIFIVNAMGWYRQAPGKERELVATITSDVDTNYADSVKGRFTISRDNAKNTVYLQMNSLKPEDTAVYYCAKESTKIYRVVEMDYWGQGTQVTVSS | low polyreactivity
QVQLVESGGGLVQAGGSLRLSCAASGSIFIVYAMGWYRQAPGKERELVATISWSGGSTSYADSVKGRFTISRDNAKNTVYLQMNSLKPEDTAVYYCNTLVRITEYDSWGQGTQVTVSS | low polyreactivity
QVQLVESGGGLVQAGGSLRLSCAASGSIFIVYAMGWYRQAPGKERELVATISWSGGSTSYADSVKGRFTNSRDNAKNTVYLQMNSLKPEDTAFYYCNTLVRITEYDSWGQGTQVTVSS | low polyreactivity
QVQLVESGGGLVQAGGSLRLSCAASGSIFIYNAMGWYRQAPGKERELVAAISSSGGSTYYADSVKGRFTISRDNAKNTVYLQMNSLKPEDTAVYYCAARTYYVRVLGGRPGMDYWGQGTQVTVSS | low polyreactivity
QVQLVESGGGLVQAGGSLRLSCAASGSIFIYNAMGWYRQAPGKERELVAAISSSGGSTYYADSVKGRITISRDNAKNTVYLQMNSLKPEPTAVYYCAARTYYVRGLGGRPGMDYCGQGTQVTVSS | low polyreactivity
QVQLVESGGGLVQAGGSLRLSCAASGSIFIYNAMGWYRQGPGKERELVAAISSSGGSTYYADSVKGRFTISRDNAKNTVYLQMNSLNPEDTAVYYCAARTYYVRGLGGRPGMDYWGPGTQVTVSS | low polyreactivity
QVQLVESGGGLVQAGGSLRLSCAASGSIFIYYAMGWYRQAPGKERELVASISSSGSRTYYADSVKGRFTISRDNAKNTVYLQMNSLKPEETAVYYCAARYAIPRNYPQYNYWGQGTQVTVSS | high polyreactivity
QVQLVESGGGLVQAGGSLRLSCAASGSIFIYYAMGWYRQAPGKERELVATISSDDRTNYTDSVKGRFTISRDNAKNTVYLQMNSLKPEDTAVYYCAADRYWAGRDGPEYDYWGQGTQVTVSS | low polyreactivity
QVQLVESGGGLVQAGGSLRLSCAASGSIFIYYAMGWYRQAPGKQRELVAGINFNGGSTYYADSVKGRFTISRDNAMYTVYVQMNSLKPEDTAVYYCAADELWWTYWDFVTNWYQRDYWGQGTQVTVSS | low polyreactivity
QVQLVESGGGLVQAGGSLRLSCAASGSIFIYYTMGWYRQAPGKEREFVASISWRGGRTYYADSVKGRFTISRDNAKNTVYLQMNSLKPEDTAVYYCAAKSRAYSYRMDYWGQGTQVTVSS | high polyreactivity
QVQLVESGGGLVQAGGSLRLSCAASGSIFKGYALGWYRQAPGKERELVAAITYSGGGTYYADSVKGRFTISRDNAKNTVYLQMNSLKPEDTAVYYCNADRYYPDDLSDGVGTYDYWGQGTQVTVSS | low polyreactivity

Sequence | polyreactivity (PSR sort gate)
QVQLVESGGGLVQAGGSLRLSCAASGSIFKGYAMGWYRQAPGKERELVAAITGGGGSTYYADSVKGRFTISRDNAKNTVYLQMNSLKPEDTAVYYCAADARVKRYYFRKSGYWGQGTQVTVSS | high polyreactivity
QVQLVESGGGLVQAGGSLRLSCAASGSIFKINAMGCYTPAPGKERELVATITRSTGTTYYADSVKGRFTNSRDTAKNSVYLQMNSLKPEDTAVYYCATDGDSNKLDYWGQGTQVTVSS | low polyreactivity
QVQLVESGGGLVQAGGSLRLSCAASGSIFKIYAMGWSRQAPGKERELVAAISRSVGSTYADSVKGRFTISRDNAKNTVYLQMNSLKPEDTAVYYCNARYKSRLYPRYDYWGQGTQVTVSS | high polyreactivity
QVQLVESGGGLVQAGGSLRLSCAASGSIFKIYAMGWYRQAPGKERELVAAISRRGSSTSYADSVKGRFTISRDNAKNTVYLQMNSLKPEDTAVYYCAARYISNPMDYWGQGTQVTVSS | high polyreactivity
QVQLVESGGGLVQAGGSLRLSCAASGSIFKIYAMGWYRQAPGKERELVASITGSGGSTYYADSVKGRFTISRDNAKNTVYLQMNSLKPEDTAVYYCAADVVRSNFYGTFLYDYDYWGQGTQVTVSS | low polyreactivity
QVQLVESGGGLVQAGGSLRLSCAASGSIFKIYAMGWYRQAPGKERELVASITGSGGSTYYADSVKGRFTISRDNAKNTVYLQMNSLKPEDTAVYYCIADGPLDRYEYWGQGTQVTVSS | low polyreactivity
QVQLVESGGGLVQAGGSLRLSCAASGSIFKKYAMGWYRQAPGKERELVAAITRGTYYADSVKGRFTISRDNAKNTVYLQMNSVKPVDTAVYYCNREYWGRGYYRVRGEYVYWGQGTQVTVSS | low polyreactivity
QVQLVESGGGLVQAGGSLRLSCAASGSIFKPYAMAWYRQAPGKERELVAAINRGGTSTYYADSVKGRFTISRDNAKNTVYLQMNSLKPEDTAVYYCAKTYTEYSVTRSGARMDYWGQGAQVTVSS | low polyreactivity
QVQLVESGGGLVQAGGSLRLSCAASGSIFKPYAMGWYRQAPGKERELVAAINRGGTSTYYADSVKGRFTISRDNAKNTVYFQMNSLKPEDTAVYYCAAPNRYSVPMYYWGQGTQVTVSS | low polyreactivity
QVQLVESGGGLVQAGGSLRLSCAASGSIFKPYAMGWYRQAPGKERELVAAISYSGGSTYYADSVKGRFTISRDNAKNSVYLQMNSLKPEDTAVYYCAKRSTSRGYDYWGQGTQVTVSS | high polyreactivity
QVQLVESGGGLVQAGGSLRLSCAASGSIFKQNDMGWYRHAPGKERELVAAITYTGGSTYYADSVKGRFTISRDNAKNTVYLQMNSLKPEDTAVYYCAARITSPRARSRGFYYWGQGTQVTVSS | high polyreactivity
QVQLVESGGGLVQAGGSLRLSCAASGSIFKQYDMGWYRQAPGKERDLVAAITASDGSTYYADSVKGRFTISRDNAMNTVYLQMNSLKPEDTAVYFCAADGGVAWGYGYCGQGTQVTVSS | low polyreactivity
QVQLVESGGGLVQAGGSLRLSCAASGSIFKQYVMGWYRQAPGKERELVAAISRGGNTYYADSVKGRFTISRDNAKNTVYLQMNSLKPEDTAVYYCAAVYGGRAVPYYSWGQGTQVTVSS | high polyreactivity
QVQLVESGGGLVQAGGSLRLSCAASGSIFKRNAMGWYRQAPGKERELVASISWSGTRTYYADSVKGRFTISRDKAKNTVYFQMNSLKPEDTAVYYCARRIYGGHPCQSTQGDFYYWGQGTQVTVSS | high polyreactivity
QVQLVESGGGLVQAGGSLRLSCAASGSIFKRYAMGWYRQAPGKERELVAAISWSGGNTYYADSVKGRFTISRDNAKNTVYLQMNSLKPEDTAVYYCAALHRVGYSEYGYWGQGTQVTVSS | high polyreactivity
QVQLVESGGGLVQAGGSLRLSCAASGSIFKRYAMGWYRQAPGKERELVAGITSSGGSTYYADSVKGRFTISPDNAKNTVYLQMNSLKPEDTAVYYCAAPYSSYKVRPYDYWGQGTQVTVSS | low polyreactivity
QVQLVESGGGLVQAGGSLRLSCAASGSIFKSYAMGWYRHAPWKERELVASISSRGSSTNYADSVKGRFTISRDNAKITVYLQMNSLKPEDTEGYYCAAEVYRGKYWSTYRGGDYWGQGTQVTVSS | high polyreactivity
QVQLVESGGGLVQAGGSLRLSCAASGSIFKSYAMGWYRQPPGKERELVAAISWSGTSTYYADSVKGRFTISRDNAKNTVYLLMNSLKPEDTAVYYCNAVSVSSKRSDYWGQGTQVTVSS | low polyreactivity
QVQLVESGGGLVQAGGSLRLSCAASGSIFKTNAMGWYRQAPGKERELVAGISNGGSTNYADSVKGRFTISRDNAKNTVYLQMNSLKPEDTAVYYCATDFAVTKMEYWGQGTQVTVSS | low polyreactivity
QVQLVESGGGLVQAGGSLRLSCAASGSIFKTYAMGWYRQAPGKERELVAAISSGGSTYYADSVKGRFTISRDNAKNTVYLELNSLKPEDTAVYYCAADPWGAFVSFASYYYWGQGTQVTVSS | low polyreactivity
QVQLVESGGGLVQAGGSLRLSCAASGSIFKYNAMGWYRQAPGKERELVAAITIGGRTYYADSVKGRFTISRDNAKNTVYLQMNSLKPEDTAVYYCAGVVRALTIKYGYWGQGTQVTVSS | high polyreactivity
